Key:
[1] = 14C assay with IPTG-induced recombinant E. coli cells: 14CO2 captured from [14C]-carboxyl-labeled dicamba; settings: for decarboxylation activity of dicamba: among the 108 sequences tested, recombinant E. coli cells; for Enzymatic Detection level: dicamba decarboxylation activity of the protein of the given SEQ ID NO, High / Low / No; for Dicamba Decarboxylase Activity: induced recombinant E. coli cells, [14C]-carboxyl-labeled dicamba, 14CO2 capture
[2] = Saturation mutagenesis of SEQ ID NO:109: dicamba decarboxylation activity of point mutants (carbon dioxide released); settings: decarboxylation activity (carbon dioxide released) of point mutant compared with unmutated backbone protein; backbone SEQ ID NO: 109

Molecule	decarboxylation activity of dicamba [1]	Enzymatic Detection level [1]	Dicamba Decarboxylase Activity [1]	Fold Activity [2]
21 (protein, listed as Agrobacterium tumefaciens) MAQGKVALEEHFAIPETLQDSAGFVPGDYWKELQHRLLDIQDTRLKLMDAHGIETMILSLNAPAVQAIPDRKKAIEIARRANDVLAEECARRPDRFLAFAALPLQDPDAATQELQRCVNDLGFVGALVNGFSQEGDGQTPLYYDLPQYRPFWGEVEKLDVPFYLHPRNPLPQDSRIYDGHPWLLGPTWAFAQETAVHALRLMASGLFDAHPRLNIILGHMGEGLPYMMWRIDHRNAWVKLPPRYPAKRRFVDYFNENFHITTSGNFRTQTLIDAILEIGADRILFSTDWPFENIDHASDWFNATTIAEADRVKIGRTNARRLFKLDGR	showed decarboxylation activity of dicamba	High	High	1.9
40 (protein, listed as Rhodococcus jostii) MAQGKIALEEHFAIPETLNDSAGFVPGTYWDELQARLLDIQDVRLKLMDEHNIETMILSLNAPAVQAIPERERAIDIARRANDVLAEECAKRPDRFRGFAALPLQDPDAAAEELRRCVTELGFVGALVNGFSQSATVDGGSTPLYYDLPRYRPFWAEVERLDVPFYLHPRNPLNQDARIYEGHPWLLGPTWAFAQETAVHALRLMASGLFDEHPGLRIVLGHMGEGIPAMLWRIDHRNAWVDVPPAYPAKRRMVDYFTENFFVTTSGNFRTQTLIDLLLELGSERVMFSTDWPFENINHAAEWFDAASISEADRLKIGRTNAATLFKLDR		Low	Low	1.4
26 (protein, listed as Variovorax paradoxus) MATHMAPMKNKIALEEHFAIDLTIADSQVYARPEVWQGLKSNLLDFEQQRLEKMDEWGTEFSILSLNSPAVQGIPDAKRAIEVAQRANDVLAEQVKRHPTRFGGFAALPMQDPEASARELERCVNQLGFHGFLVNGFSQVGDENIVVYYDDARFNDFWTAAAALKKPFYMHPRDPLLAREPIYDGAHWLTGPTWAFAMETAIHALRLMSSGMFDRHPALQMILGHFGEGIPFNIWRVDHILRKGRRGMPCDKEIGEYLRSNVHITTSGNFRTPTLLSTMLEVGSDRIMYSVDYPFEKHEDAARWFDTCEISENDRQKIGRDNARKLFGLK	showed decarboxylation activity of dicamba	High	High	1.2
42 (protein, Agrobacterium radiobacter) MAQGKIALEEHFAIPDTLQDSAGFVPGDYWKELSARLLDIHEQRLMQMDAYGIEKMILSLNAPAVQAIPDKAKALEISRRANDFLAEQCARNPDRFLGFAALPLQDPDAATAELQRCVKTLGFVGALVNGFSQEGDGVTPLYYDLPQYRGFWAEVEKLAVPFYLHPRNPLPQDSRIYAGHPWLMGPTWAFAQETAVHALRLVGSGLFDDHPALRIILGHMGEGLPYMMWRIDNRNAWVKVAPNYPAKRRIADYFNENFYITTSGNFRTQSLVDAMLEIGADRILFSTDWPFENIDHASDWFDTATISEADRLKIGRTNAATLFNLES		Low	Low	1.7
29 (protein, listed as Pseudovibrio sp.) MAGRRDFLRKSVAAGVGLTAAAQLSAGGAQATVPDTSNIPLITLEEHFTTPELQSKNTSGDKRLFSGGGSRPELLDVGAGRIADMDEAGIDIQVLSTVTPGASKITGAEGVEFTRKFNTWIAEEVIAAYPNRFRAFATLPLSSPEAAADELERSVREYGFVGTMTYGPIDGKFLDHADYAPLLARAEALGVPIYIHPNWPSPTAMQAYYDGLGDDLTSRILSGPGYGWHQEIAVQCLRLIVGGVFDRFPNLQIVVGHMGEGLPFYYWRVGEDLDRIAQKRLQKPVQQYFHDNLWITTSAFFRDELLNLALATMGEDRVMFSVDYPMASAKVGADWLRAADIPLATKEKIGSKNAMKLLGIDKI		No	No	1.5
39 (protein, listed as Agrobacterium fabrum) MAQGKVALEEHFAIPETLQDSAGFVPGDCWTELQHRLLDIQDTRLKLMDAHGIETMILSLNAPAVQAIPDKTKAIEIARRANDALAEECAKRPDRFLAFAALPLQDPDAATQELRRCVNDLGFVGALVNGFSQEGDGQTPLYYDLPQYRPFWGEVEKLDVPFYLHPRNPLPQDSRIYDGHPWLLGPTWAFAQETAVHALRLMASGLFDEHPRLDIILGHMGEGLPYMMWRIDHRNAWVKLPPRYPAKRRFVDYFNENFHITTSGNFRTQTLIDAILEIGADRILFSTDWPFENIDHASDWFHATSIAEADRVKIGRTNARRLFKLDGR		No	No	1.6
22 (protein, listed as Staphylococcus epidermidis) MAKSINFEEHYVVDDIQKETMKYMSSDPNGVPMQTMLKGLEQKSGFTNADDITKHDERIKFMDEHDVEMQVLSYGNGAPSNLEGERAIELCQQANDTLAKYVNEHPDRFVGFATLPINEPQAAVEEFKRCIKELGFKGALIMGHPKNGFLDQDQYDDLFATAEALNVPIYLHPSPVQSDVYQAYYKGNYSDVTAATFACFGYGWHVDVGIHAIHLVLSGVFDRHPNLNMIIGHWGEFVPFFLERMDDILFADHLEHPISYYFKNNFYITPSGMLTKPQFDLVKAEVGVDRILYSADYPYVEPDKLGTFLDELDLTEEEKEKISYKNGAKLLGLEK	showed decarboxylation activity of dicamba	High	High	1.6
38 (protein, listed as Variovorax paradoxus) MAQGKIGLEEHFAIPQTLQDSAGFVPGVYWKELSSRLLDIHDGRLRQMDEHGMEMMILSLNAPAVQAVADPVKAYELAVRANDFLAEQVAKRPDRFQAFAALPMQDPEKATQELERCMSVLGFRGALVNGFSQVGTPDNVAYYDAPQYAPFWAAAERLDAPFYLHPRNPIASWAQIYEGHPWLLGPTWAFAQETAVHALRLMASGLFDRHPGLKIILGHLGEGLPYNMWRVDHRNAWVKAPKGYPAKRKLCEYFQENFYLTTSGNFRTQTLIDAMLEVGSDRILFSTDWPFENIDHASNWFNDTSISEADRKKIGRTNAMSLFKLA		Low	Low	1.8
19 (protein, listed as Talaromyces marneffei) MATPIITLEEHYISSAIRDASETDHYAVFPSQIISKLNTLSTERLQDLDNGHVSLQVISHGPGAQPPYLCQAANDELASAISANPTRFAGFALLPIAEPQLAVQELERCITQHKFVGALIDNHTNGQFYDDQKFWPVFEKAQELDAPIYVHPSYPDEESGVAAHYRGNYDDRIAAALGAYGWGWHSDTALSILRLFAAGLFDTYPNIKIIIGHMGEMLPFQLERVIGIASRFGRSRGLREVWTQNIWVTTSGMFALAPLACLLQTMPIERVLYSVDYPFSANEKGFAFLEEIKKSGLIKEGEDWERFLYKNAQELLKVNV	showed decarboxylation activity of dicamba	High	High	1.6
5 (protein, listed as Staphylococcus aureus) MAQNNMEANQMKSITFEEHYVIEDIQKETMNAISADPKGVPMKVMLEGLEKKTGFTNADELSHHDERIQFMNNQDVQIQVLSYGNGSPSNLVGQKAIELCQKANDQLANYIAQYPNRFVGFATLPINEPEAAAREFERCINDLGFKGALIMGRAQDGFLDQDKYDIIFKTAENLGVPIYLHPAPVNSDIYQSYYKGNYPEVTAATFACFGYGWHIDVGIHAIHLVLSGIFDRYPKLNMIIGHWGEFIPFFLERMDEALFAEHLNHPVSYYFKNNFYITPSGMLTKPQFDLVKKEAGIDRILYAADYPYIEPEKLGVFLDELGLTDEEKEKISYTNGAKLLGLSSNN	showed decarboxylation activity of dicamba	High	High	0.8
16 (protein, listed as Staphylococcus aureus) MAQNNMEANQMKSITFEEHYVIEDIQKETMNAISADPKGVPMKVMLEGLEKKTGFTNADELSHHDERIQFMNNQDVQIQVLSYGNGSPSNLVGQKAIELCQKANDQLANYIAQYPNRFVGFATLPINEPETAAREFERCINDLGFKGALIMGRAQDGFLDQDKYDIIFKTAENLGVPIYLHPAPVNSDIYQSYYKGNYPEVTAATFACFGYGWHIDVGIHAIHLVLSGIFDRYPKLNMIIGHWGEFIPFFLERMDEALFAEHLNHPVSYYFKNNFYITPSGMLTKPQFDLVKKEAGIDRILYAADYPYIEPEKLGVFLDELGLTDEEKEKISYTNGAKLLGLSSNN	showed decarboxylation activity of dicamba	High	High	1.1
45 (protein, Mycobacterium sp) MANDDLAEVIAAHPDRFAGFAALPMRDPQAAAVELQRAVGTHGFCGAMINGLIEGRFLDDPAFAPLLSTAADLGVPLYLHPSFPPPQVAEIYFGGLAPVLGDLLATAGWGWHAETALHVLRLVATGVFDRLPELWVIVGHMGEMIPFALARIDTVLSPVAQLRQPVAQYFQTNVWFTTSGYTTFPPLQCALSTVGIDRLIFSVDYPYTDNTSARALLDTAPISPVDREKLAHGTVEALLRV		No	No	1.7
37 (protein, listed as Burkholderia gladioli) MATFSNVKKIALEEHFAIAETIEDSAGFVPPDDWVELRGRLLDIQERRLAEMDRAGIELMVLSLNAPAVQAIRDPRQAVELARRANDYLAEQVARRPDRFRAFAALPMQAPEQAIREAERCVRELGFVGALVNGFSEAEDGAELYYDLPRYRPFWAALEALEVPFYLHPRNPLAGRAPIYDGHSWLMGPTWAFGQETAVHALRLMGSGLFDAHPRLQIILGHMGEGLPYSMWRVDNRNAWVSAKPNYPAEKPIAEYFRNNFWLTTSGNFRTQTLIDAMLEIGSDRILFSADWPFENMDHAADWFDHASISENDRIKIGRGNAERLLKLGR		Low	Low	1.6

— patent publication US20160053277A1, “Compositions Having Dicamba Decarboxylase Activity and Methods of Use” (PIONEER HI-BRED INTERNATIONAL, INC., priority 2013, published 2016)
